Patent publication US20140087995A1 (published 2014)
Numbered stars: 1 amine (or outer) side, 2 acyl side, 3 side chain; on linkers, the order of the positions; unused ones are H or OH. Bridge positions count the residues as written; N and C are the ends. Side chains are listed from the residue outwards. Ends that are not written are not given here. * marks the point of attachment. C20 diacid = O=C(O)CCCCCCCCCCCCCCCCCCC(=O)*; γGlu = O=C(O)[C@H](CCC(=O)[*:2])N[*:1]; AEEA = NCCOCCOCC(=O)O

B1: N^ε1-[2-[2-[2-[[(4S)-4-carboxy-4-(19-carboxynonadecanoylamino)butanoyl]amino]ethoxy]ethoxy]acetyl]-[Arg17,Pro21,Pro27,Pro34,His35]-h-amylin (peptide)
peptide: K([AEEA-γGlu-C20 diacid])CNTATCATQRLANFLRHSSPNFGAIPSSTNVGPHTY-NH2
modifications: disulfide 2-7; N-terminus assumed
SMILES: CC[C@H](C)[C@H](NC(=O)[C@H](C)NC(=O)CNC(=O)[C@H](Cc1ccccc1)NC(=O)[C@H](CC(N)=O)NC(=O)[C@@H]1CCCN1C(=O)[C@H](CO)NC(=O)[C@H](CO)NC(=O)[C@H](Cc1c[nH]cn1)NC(=O)[C@H](CCCNC(=N)N)NC(=O)[C@H](CC(C)C)NC(=O)[C@H](Cc1ccccc1)NC(=O)[C@H](CC(N)=O)NC(=O)[C@H](C)NC(=O)[C@H](CC(C)C)NC(=O)[C@H](CCCNC(=N)N)NC(=O)[C@H](CCC(N)=O)NC(=O)[C@@H](NC(=O)[C@H](C)NC(=O)[C@@H]1CSSC[C@H](NC(=O)[C@@H](N)CCCCNC(=O)COCCOCCNC(=O)CC[C@H](NC(=O)CCCCCCCCCCCCCCCCCCC(=O)O)C(=O)O)C(=O)N[C@@H](CC(N)=O)C(=O)N[C@@H]([C@@H](C)O)C(=O)N[C@@H](C)C(=O)N[C@@H]([C@@H](C)O)C(=O)N1)[C@@H](C)O)C(=O)N1CCC[C@H]1C(=O)N[C@@H](CO)C(=O)N[C@@H](CO)C(=O)N[C@H](C(=O)N[C@@H](CC(N)=O)C(=O)N[C@H](C(=O)NCC(=O)N1CCC[C@H]1C(=O)N[C@@H](Cc1c[nH]cn1)C(=O)N[C@H](C(=O)N[C@@H](Cc1ccc(O)cc1)C(N)=O)[C@@H](C)O)C(C)C)[C@@H](C)O
notes: h-amylin derivative; disulfide bridge and C-terminal amide as told for human amylin; also called compound 58
B2: N^ε1-[(4S)-4-carboxy-4-(19-carboxynonadecanoylamino)butanoyl]-[Glu14,Arg17,Pro21,Pro27,Arg35]-h-amylin (peptide)
peptide: K([γGlu-C20 diacid])CNTATCATQRLAEFLRHSSPNFGAIPSSTNVGSRTY-NH2
modifications: disulfide 2-7; N-terminus assumed
SMILES: CC[C@H](C)[C@H](NC(=O)[C@H](C)NC(=O)CNC(=O)[C@H](Cc1ccccc1)NC(=O)[C@H](CC(N)=O)NC(=O)[C@@H]1CCCN1C(=O)[C@H](CO)NC(=O)[C@H](CO)NC(=O)[C@H](Cc1c[nH]cn1)NC(=O)[C@H](CCCNC(=N)N)NC(=O)[C@H](CC(C)C)NC(=O)[C@H](Cc1ccccc1)NC(=O)[C@H](CCC(=O)O)NC(=O)[C@H](C)NC(=O)[C@H](CC(C)C)NC(=O)[C@H](CCCNC(=N)N)NC(=O)[C@H](CCC(N)=O)NC(=O)[C@@H](NC(=O)[C@H](C)NC(=O)[C@@H]1CSSC[C@H](NC(=O)[C@@H](N)CCCCNC(=O)CC[C@H](NC(=O)CCCCCCCCCCCCCCCCCCC(=O)O)C(=O)O)C(=O)N[C@@H](CC(N)=O)C(=O)N[C@@H]([C@@H](C)O)C(=O)N[C@@H](C)C(=O)N[C@@H]([C@@H](C)O)C(=O)N1)[C@@H](C)O)C(=O)N1CCC[C@H]1C(=O)N[C@@H](CO)C(=O)N[C@@H](CO)C(=O)N[C@H](C(=O)N[C@@H](CC(N)=O)C(=O)N[C@H](C(=O)NCC(=O)N[C@@H](CO)C(=O)N[C@@H](CCCNC(=N)N)C(=O)N[C@H](C(=O)N[C@@H](Cc1ccc(O)cc1)C(N)=O)[C@@H](C)O)C(C)C)[C@@H](C)O
notes: h-amylin derivative; disulfide bridge and C-terminal amide as told for human amylin; also called compound 51

What was measured:
[1] = biological target: T1, human amylin 3(a) receptor (human calcitonin receptor co-expressed with RAMP-3) (human, UniProt P30988 25-474; O60896 24-148, limits assumed); assay: cell-based or functional assay
T1 sequence (looked up) 1: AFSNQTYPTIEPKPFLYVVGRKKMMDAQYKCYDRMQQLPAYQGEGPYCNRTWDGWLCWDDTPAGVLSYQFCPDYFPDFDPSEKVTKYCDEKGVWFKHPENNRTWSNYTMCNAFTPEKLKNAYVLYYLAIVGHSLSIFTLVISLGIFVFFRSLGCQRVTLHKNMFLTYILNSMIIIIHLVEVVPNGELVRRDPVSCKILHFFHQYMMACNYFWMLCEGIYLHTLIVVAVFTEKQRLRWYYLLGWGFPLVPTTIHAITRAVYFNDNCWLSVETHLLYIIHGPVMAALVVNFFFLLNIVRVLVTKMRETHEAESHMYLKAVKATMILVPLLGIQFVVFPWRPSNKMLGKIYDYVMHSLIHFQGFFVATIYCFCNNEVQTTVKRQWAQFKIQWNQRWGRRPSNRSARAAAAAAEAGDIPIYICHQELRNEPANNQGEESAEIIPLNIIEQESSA
T1 sequence (looked up) 2: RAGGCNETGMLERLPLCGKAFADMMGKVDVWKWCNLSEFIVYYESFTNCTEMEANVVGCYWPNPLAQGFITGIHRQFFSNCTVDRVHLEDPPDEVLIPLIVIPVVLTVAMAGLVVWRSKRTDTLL

[2] = biological target: T2, human calcitonin receptor (human, UniProt P30988 25-474); assay: cell-based or functional assay
T2 sequence (looked up): T1 sequence (looked up) 1

Row | Binder | hAmylin-R funct. EC50 [1] [nM] | hCTR funct. EC50 [2] [nM] | Ratio hCT/hAmylin funct. [1]
1 | B1 | 0.047 | 1.03 | 
2 | B2 |  | 5.22 | 14
